Laboratory results published in patent US12630600B2 (MEDIMMUNE LIMITED, priority 2022, dated 2026).
Starred links: 1 amine or outer side, 2 acyl side, 3 side chain; linkers in the order of their positions; H or OH if unused. Non-standard residues stand in square brackets, D forms with d. Groups on a side chain read outwards from the residue. No end group written: not given here. *: point of attachment. C20 diacid = O=C(O)CCCCCCCCCCCCCCCCCCC(=O)*; C18 diacid = O=C(O)CCCCCCCCCCCCCCCCC(=O)*; γGlu = O=C(O)[C@H](CCC(=O)[*:2])N[*:1]; αMeF = C[C@](N)(Cc1ccccc1)C(=O)O; AEEA = NCCOCCOCC(=O)O; Aib = CC(C)(N)C(=O)O

Columns and labels:
human glucagon receptor = human glucagon receptor (human, UniProt P47871); test: cell-based or functional assay
human GLP-1 receptor = human GLP-1 receptor (human, UniProt P43220); test: cell-based or functional assay

B1: Peptide 482 (peptide)
peptide: H[Aib]QGTFTSDVSK[αMeF]LESK([AEEA-AEEA-γGlu-C18 diacid])RAQDFVQWLL[Aib]E-OH
modifications: N-terminus assumed
SMILES: CC(C)C[C@H](NC(=O)[C@H](Cc1c[nH]c2ccccc12)NC(=O)[C@H](CCC(N)=O)NC(=O)[C@@H](NC(=O)[C@H](Cc1ccccc1)NC(=O)[C@H](CC(=O)O)NC(=O)[C@H](CCC(N)=O)NC(=O)[C@H](C)NC(=O)[C@H](CCCNC(=N)N)NC(=O)[C@H](CCCCNC(=O)COCCOCCNC(=O)COCCOCCNC(=O)CC[C@H](NC(=O)CCCCCCCCCCCCCCCCC(=O)O)C(=O)O)NC(=O)[C@H](CO)NC(=O)[C@H](CCC(=O)O)NC(=O)[C@H](CC(C)C)NC(=O)[C@](C)(Cc1ccccc1)NC(=O)[C@H](CCCCN)NC(=O)[C@H](CO)NC(=O)[C@@H](NC(=O)[C@H](CC(=O)O)NC(=O)[C@H](CO)NC(=O)[C@@H](NC(=O)[C@H](Cc1ccccc1)NC(=O)[C@@H](NC(=O)CNC(=O)[C@H](CCC(N)=O)NC(=O)C(C)(C)NC(=O)[C@@H](N)Cc1c[nH]cn1)[C@@H](C)O)[C@@H](C)O)C(C)C)C(C)C)C(=O)N[C@@H](CC(C)C)C(=O)NC(C)(C)C(=O)N[C@@H](CCC(=O)O)C(=O)O
B1 was tested, and the “cAMP production EC50” value (human glucagon receptor) was 0.691 nM and the “cAMP production EC50” value (human GLP-1 receptor) was 0.19 nM.

With H[Aib]QGTFTSDVSK[αMeF]LDTK([AEEA-AEEA-γGlu-C18 diacid])RAQDFVQWLL[Aib]E-OH [Peptide 483] the “cAMP production EC50” value (human glucagon receptor) was 0.169 nM and the “cAMP production EC50” value (human GLP-1 receptor) was 0.178 nM.

B2: Peptide 484 (peptide)
peptide: H[Aib]QGTFTSDVSK[αMeF]LDTK([AEEA-AEEA-γGlu-C20 diacid])RAQDFVQWLL[Aib]E-OH
modifications: N-terminus assumed
SMILES: CC(C)C[C@H](NC(=O)[C@H](Cc1c[nH]c2ccccc12)NC(=O)[C@H](CCC(N)=O)NC(=O)[C@@H](NC(=O)[C@H](Cc1ccccc1)NC(=O)[C@H](CC(=O)O)NC(=O)[C@H](CCC(N)=O)NC(=O)[C@H](C)NC(=O)[C@H](CCCNC(=N)N)NC(=O)[C@H](CCCCNC(=O)COCCOCCNC(=O)COCCOCCNC(=O)CC[C@H](NC(=O)CCCCCCCCCCCCCCCCCCC(=O)O)C(=O)O)NC(=O)[C@@H](NC(=O)[C@H](CC(=O)O)NC(=O)[C@H](CC(C)C)NC(=O)[C@](C)(Cc1ccccc1)NC(=O)[C@H](CCCCN)NC(=O)[C@H](CO)NC(=O)[C@@H](NC(=O)[C@H](CC(=O)O)NC(=O)[C@H](CO)NC(=O)[C@@H](NC(=O)[C@H](Cc1ccccc1)NC(=O)[C@@H](NC(=O)CNC(=O)[C@H](CCC(N)=O)NC(=O)C(C)(C)NC(=O)[C@@H](N)Cc1c[nH]cn1)[C@@H](C)O)[C@@H](C)O)C(C)C)[C@@H](C)O)C(C)C)C(=O)N[C@@H](CC(C)C)C(=O)NC(C)(C)C(=O)N[C@@H](CCC(=O)O)C(=O)O
With B2 the “cAMP production EC50” value (human glucagon receptor) was 0.169 nM and the “cAMP production EC50” value (human GLP-1 receptor) was 0.339 nM.

B3: Peptide 485 (peptide)
peptide: H[Aib]QGTFTSDVSK[αMeF]LDTK([AEEA-AEEA-γGlu-C20 diacid])RAQDFVQWLL[Aib]E-NH2
modifications: N-terminus assumed
SMILES: CC(C)C[C@H](NC(=O)[C@H](Cc1c[nH]c2ccccc12)NC(=O)[C@H](CCC(N)=O)NC(=O)[C@@H](NC(=O)[C@H](Cc1ccccc1)NC(=O)[C@H](CC(=O)O)NC(=O)[C@H](CCC(N)=O)NC(=O)[C@H](C)NC(=O)[C@H](CCCNC(=N)N)NC(=O)[C@H](CCCCNC(=O)COCCOCCNC(=O)COCCOCCNC(=O)CC[C@H](NC(=O)CCCCCCCCCCCCCCCCCCC(=O)O)C(=O)O)NC(=O)[C@@H](NC(=O)[C@H](CC(=O)O)NC(=O)[C@H](CC(C)C)NC(=O)[C@](C)(Cc1ccccc1)NC(=O)[C@H](CCCCN)NC(=O)[C@H](CO)NC(=O)[C@@H](NC(=O)[C@H](CC(=O)O)NC(=O)[C@H](CO)NC(=O)[C@@H](NC(=O)[C@H](Cc1ccccc1)NC(=O)[C@@H](NC(=O)CNC(=O)[C@H](CCC(N)=O)NC(=O)C(C)(C)NC(=O)[C@@H](N)Cc1c[nH]cn1)[C@@H](C)O)[C@@H](C)O)C(C)C)[C@@H](C)O)C(C)C)C(=O)N[C@@H](CC(C)C)C(=O)NC(C)(C)C(=O)N[C@@H](CCC(=O)O)C(N)=O
B3 was tested, and the “cAMP production EC50” value (human glucagon receptor) was 0.0904 nM and the “cAMP production EC50” value (human GLP-1 receptor) was 0.219 nM.

B4: Peptide 486 (peptide)
peptide: H[Aib]QGTFTSDVSK[αMeF]LDLK([AEEA-AEEA-γGlu-C20 diacid])RAQDFVRWLL[Aib]E-OH
modifications: N-terminus assumed
SMILES: CC(C)C[C@H](NC(=O)[C@H](CC(=O)O)NC(=O)[C@H](CC(C)C)NC(=O)[C@](C)(Cc1ccccc1)NC(=O)[C@H](CCCCN)NC(=O)[C@H](CO)NC(=O)[C@@H](NC(=O)[C@H](CC(=O)O)NC(=O)[C@H](CO)NC(=O)[C@@H](NC(=O)[C@H](Cc1ccccc1)NC(=O)[C@@H](NC(=O)CNC(=O)[C@H](CCC(N)=O)NC(=O)C(C)(C)NC(=O)[C@@H](N)Cc1c[nH]cn1)[C@@H](C)O)[C@@H](C)O)C(C)C)C(=O)N[C@@H](CCCCNC(=O)COCCOCCNC(=O)COCCOCCNC(=O)CC[C@H](NC(=O)CCCCCCCCCCCCCCCCCCC(=O)O)C(=O)O)C(=O)N[C@@H](CCCNC(=N)N)C(=O)N[C@@H](C)C(=O)N[C@@H](CCC(N)=O)C(=O)N[C@@H](CC(=O)O)C(=O)N[C@@H](Cc1ccccc1)C(=O)N[C@H](C(=O)N[C@@H](CCCNC(=N)N)C(=O)N[C@@H](Cc1c[nH]c2ccccc12)C(=O)N[C@@H](CC(C)C)C(=O)N[C@@H](CC(C)C)C(=O)NC(C)(C)C(=O)N[C@@H](CCC(=O)O)C(=O)O)C(C)C
In the case of B4, the “cAMP production EC50” value (human glucagon receptor) is reported as 0.166 nM and the “cAMP production EC50” value (human GLP-1 receptor) is reported as 0.42 nM.

B5: Peptide 487 (peptide)
peptide: H[Aib]QGTFTSDVSK[αMeF]LDTK([AEEA-AEEA-γGlu-C18 diacid])RARDFVQWLL[Aib]TE-OH
modifications: N-terminus assumed
SMILES: CC(C)C[C@H](NC(=O)[C@H](Cc1c[nH]c2ccccc12)NC(=O)[C@H](CCC(N)=O)NC(=O)[C@@H](NC(=O)[C@H](Cc1ccccc1)NC(=O)[C@H](CC(=O)O)NC(=O)[C@H](CCCNC(=N)N)NC(=O)[C@H](C)NC(=O)[C@H](CCCNC(=N)N)NC(=O)[C@H](CCCCNC(=O)COCCOCCNC(=O)COCCOCCNC(=O)CC[C@H](NC(=O)CCCCCCCCCCCCCCCCC(=O)O)C(=O)O)NC(=O)[C@@H](NC(=O)[C@H](CC(=O)O)NC(=O)[C@H](CC(C)C)NC(=O)[C@](C)(Cc1ccccc1)NC(=O)[C@H](CCCCN)NC(=O)[C@H](CO)NC(=O)[C@@H](NC(=O)[C@H](CC(=O)O)NC(=O)[C@H](CO)NC(=O)[C@@H](NC(=O)[C@H](Cc1ccccc1)NC(=O)[C@@H](NC(=O)CNC(=O)[C@H](CCC(N)=O)NC(=O)C(C)(C)NC(=O)[C@@H](N)Cc1c[nH]cn1)[C@@H](C)O)[C@@H](C)O)C(C)C)[C@@H](C)O)C(C)C)C(=O)N[C@@H](CC(C)C)C(=O)NC(C)(C)C(=O)N[C@H](C(=O)N[C@@H](CCC(=O)O)C(=O)O)[C@@H](C)O
With B5 the “cAMP production EC50” value (human glucagon receptor) was 0.164 nM and the “cAMP production EC50” value (human GLP-1 receptor) was 0.0655 nM.

B6: Peptide 488 (peptide)
peptide: H[Aib]QGTFTSDVSK[αMeF]LDTK([AEEA-AEEA-γGlu-C20 diacid])RARDFVQWLL[Aib]TE-OH
modifications: N-terminus assumed
SMILES: CC(C)C[C@H](NC(=O)[C@H](Cc1c[nH]c2ccccc12)NC(=O)[C@H](CCC(N)=O)NC(=O)[C@@H](NC(=O)[C@H](Cc1ccccc1)NC(=O)[C@H](CC(=O)O)NC(=O)[C@H](CCCNC(=N)N)NC(=O)[C@H](C)NC(=O)[C@H](CCCNC(=N)N)NC(=O)[C@H](CCCCNC(=O)COCCOCCNC(=O)COCCOCCNC(=O)CC[C@H](NC(=O)CCCCCCCCCCCCCCCCCCC(=O)O)C(=O)O)NC(=O)[C@@H](NC(=O)[C@H](CC(=O)O)NC(=O)[C@H](CC(C)C)NC(=O)[C@](C)(Cc1ccccc1)NC(=O)[C@H](CCCCN)NC(=O)[C@H](CO)NC(=O)[C@@H](NC(=O)[C@H](CC(=O)O)NC(=O)[C@H](CO)NC(=O)[C@@H](NC(=O)[C@H](Cc1ccccc1)NC(=O)[C@@H](NC(=O)CNC(=O)[C@H](CCC(N)=O)NC(=O)C(C)(C)NC(=O)[C@@H](N)Cc1c[nH]cn1)[C@@H](C)O)[C@@H](C)O)C(C)C)[C@@H](C)O)C(C)C)C(=O)N[C@@H](CC(C)C)C(=O)NC(C)(C)C(=O)N[C@H](C(=O)N[C@@H](CCC(=O)O)C(=O)O)[C@@H](C)O
In the case of B6, the “cAMP production EC50” value (human glucagon receptor) is reported as 0.301 nM and the “cAMP production EC50” value (human GLP-1 receptor) is reported as 0.202 nM.

B7: Peptide 490 (peptide)
peptide: H[Aib]QGTFTSDVSK[αMeF]LDTK([AEEA-AEEA-γGlu-C20 diacid])RARDFVQWLL[Aib]TE-NH2
modifications: N-terminus assumed
SMILES: CC(C)C[C@H](NC(=O)[C@H](Cc1c[nH]c2ccccc12)NC(=O)[C@H](CCC(N)=O)NC(=O)[C@@H](NC(=O)[C@H](Cc1ccccc1)NC(=O)[C@H](CC(=O)O)NC(=O)[C@H](CCCNC(=N)N)NC(=O)[C@H](C)NC(=O)[C@H](CCCNC(=N)N)NC(=O)[C@H](CCCCNC(=O)COCCOCCNC(=O)COCCOCCNC(=O)CC[C@H](NC(=O)CCCCCCCCCCCCCCCCCCC(=O)O)C(=O)O)NC(=O)[C@@H](NC(=O)[C@H](CC(=O)O)NC(=O)[C@H](CC(C)C)NC(=O)[C@](C)(Cc1ccccc1)NC(=O)[C@H](CCCCN)NC(=O)[C@H](CO)NC(=O)[C@@H](NC(=O)[C@H](CC(=O)O)NC(=O)[C@H](CO)NC(=O)[C@@H](NC(=O)[C@H](Cc1ccccc1)NC(=O)[C@@H](NC(=O)CNC(=O)[C@H](CCC(N)=O)NC(=O)C(C)(C)NC(=O)[C@@H](N)Cc1c[nH]cn1)[C@@H](C)O)[C@@H](C)O)C(C)C)[C@@H](C)O)C(C)C)C(=O)N[C@@H](CC(C)C)C(=O)NC(C)(C)C(=O)N[C@H](C(=O)N[C@@H](CCC(=O)O)C(N)=O)[C@@H](C)O
With B7 the “cAMP production EC50” value (human glucagon receptor) was 0.396 nM and the “cAMP production EC50” value (human GLP-1 receptor) was 0.069 nM.
